# Measurements: the DeepSol protein solubility set
# Test: soluble on expression in E. coli; label from the status in PepcDB or PDB records
row,Sequence,soluble on expression in E. coli
1,MTPPVSAFKKTPKKEEHPLVAIVILDAFDQRFAPTHESYPCFGTIPICNVPAINFALSWLMRTEVKNVMLVVSGLNADHATSVQREWRLAFDEFTVVVCDGASSVGDCMREIHNRELITGDFMLISNPTAVVSSTLSAQISEFRKRRRENPDNVMTLLYSNRENPEHLVLGINSETSKLMLFPAANSLNQLKASKKDFYDEVDIRRDLTPTGIAFCSRLIATQFSDNFDFVGIDDVVREILSKDDILGMSVHVEVLSPKERAFCAYDYESLILLNILMLERWFYPLVPENSDPSRYFSANPRNLYLEENGDEISIKANTWILNNNCSTVCLGVKTDIAYDAFIRNSCIGAHTEISSKTRITSSMIGKNCKIGENCVIEYAFIGDDVVIPNGAHIPKESIIGNGVMYPKELPNIQNTAIFKNAINEETFEKLSSQPIGNVHVSKFRNGGPFWRRSVNGKTNFALEEDDSESEYSESEEEDDGVGNSTKMFHDEVLESMQKILESENSLMRNLILEINSSKLACNVTMDEVARNVFAAFMKLKHNQDFNKMKELIVKWQPLFLNYYKTSAESLKVKSADQKRFELDLKRRCQIQLLLAIEDKFDRDESFGVKAQALVHYLYQEADILDEDSIIEWAGSIAEESKLKGLMKKIVDWLQEDDDEEESEDE,not soluble
2,MSLTDRIRRLRQESFDTQPSLSIERALIETEFYKENEGKYPIPILRALNFLEICKRKTIYIGEDELIVGERGPRPKAVSTFPELTCHSVEDLHVLNTRELQRYTISQEDIDTYEREVIPYWKGRTQRERIFNHVPKEWKEAYEVGMFTEFMEQRAPGHTSLDGKVYQHGMLDLKERIAHELKNLDFMNDPEATDKQEELTAMSISCDAAIIFAERHAELAEKMAGQETDPKRKEELKKIAEICRWVPAHAPRTYWEAIQMYWFVHLGTITELNGWDAMNPGHFDQHLAPFYEKDLEEGILTRAEAKELMSCFFIKVNNQTAPPKVGITAKESGTYNDFTNLNIGGIKRDGSNGVSEVSYIMLETVDDLHLLQPGSALHISVCTPERFLREGCKVIRKGYGYPSVFNPDTYVMELMRQGKTPEDAREGGCSGCIEVGAFGKEAYILTGYLNVPKILEVTLHNGTDPVSGKKVGLVTGDPCTFRSYEALYDAFLKQIHYFVDMKVRVSNYIDRMFAKYAPATFLSLFIDDCIAKGKDYYNCGPRYNTSYIQCTGLGTITDSLSVLKKHVFEERKFNMEQIIHATDTNFEGQEAMRQFILNRTPFFGNDDEYADRIAIQIFNDLYDAIEGKPNTKGECFHLNMLSTTCHVYFGKMMNATPNGREGHHHHHH,soluble
3,MANPAAAAGPSGGARSFLQAVSTVTEEAPSPLRVVQMEGLAVLKIIKHCEEFAPALVTGQLLGLDVGSVLEVTNCFPFPMREDDEEADADGANYQLEMMRCLREVNVDNNTVGWYQSCLLGSFQTVELIETFMNYQENIRRCVCIVYDPSRSNQGVLALKALKLTDSFMDLYRNNGLTGEKLREKKLSWVDIFEEIPIKVSNSALVSAFMTELEPESPVSQCDFDRLKLSTAPFMERNLEFLIGCMDDLSSEQNKFQYYYRNVSRQQSQQQAWLQKRRQENMARKAAGEEPLPEEDPSNPIFKPIPEPSRLEGYLVTNQISSYCNHINGVAGQNFNRLYLMKALQED,soluble
4,MSNQLAVSDVPTAAWTSQQPRSPRMFDQENGFSQNFQPFMQQNKTVNPCTISDDVREEMMRLRRRENAFKTALCKTFQLTKACSYGEQCKFAHSVEELQLKHQNLGINNPKYKTVLCDNFSTTGHCKYGTKCQFIHRTVEPASLKIQNPLVPRFPSWFAPPSSLAREFLCLNHFEASTSSSTTQKLTSSNLSTSTFRYY,not soluble
5,MSLQASEQVPSIQIGEPGVTVEAGDHICAFYPTLAERDEILLPYLSEGMLAGEKCIAVLDTDDLDGIRQAVSGQGLPSPKDGNQLELRRSRNAYLANGSFETEAMLKFWEDHVGAAVAEGFPFARVAGEMTWALSNLPGVDQLVGYEAKLNRLLPRYPQVVLCLYELERFDGEVLVDVLKTHPKVLLGGMVLDNPYYLEPEEFLASREGHHHHHH,soluble
6,MVDSRAFKLKEGREREVDMTSETEKRIIALEETIAHQAKTIEELSDQLAEQWKVVEQTRAKLDRLTERFLSLEEQSLDAPAITRPPHY,not soluble
7,MGSDKIHHHHHHMRHDKFAGPAYTIQIVSNALDMLELLAMRPANPSLGRLAGSLNLTRNKAYRLLSTLCERGLVEQDPETGTYAIGVAALELAQRLIRQAPVVNHAHPIMEELARKHDEAVYMTVLRGDDVVFLDMVDCERQVKATPLIGRRFPYFTNAAGKAIKALEGADPLNLLKKRGRKNNSLDVGSLLSELHEIRHKGVAVDCGGLGDGIVSVAVAVRDYAGKVVGAITMLVPSFRAVADRLESEIIPSLQEGADLLSMKLGHGPC,not soluble
8,MKLPVMSPEHSAQLQAFEAKILSNHAKIEAWFRTQWSVHRPPFYGSVDIRNAGYKISSIDMNLFPGGFNNLNPNFIPLAAVAAQDAVQRACETAKSVLIIPENHTRNTFYLQNVYALGEILRSAGYEVRLGSLNPEVTEPTEFETALGDKILLEPLLRTRDRVHLADGFSPCVVLLNNDLSAGIPDILKGISQTVLPPLHGGWTTRRKTNHFGAYNQVTAEFAKLIGIDEWQINPYFEKIGGLDFQGREGEDALAEAVERVLAKIQAKYDESGITDKPFVIVKADAGTYGMGVMSVKSADEVRGLNRKNRNKMAKVKEGLEVSEVIVQEGIYTYETLNGAVCEPVVYMMDRFVIGGFFRVHEGRGADENLNAGGMVFVPLSNSIPTGNGDNSQEAPEACKRVFEQWDSLGMPRSEKDCDVDNEHNRLYVYGVMARLSLLAASIELEETA,soluble
9,GSSSLIRRVISTAKAPGAIGPYSQAVLVDRTIYISGQIGMDPSSGQLVSGGVAEEAKQALKNMGEILKAAGCDFTNVVKTTVLLADINDFNTVNEIYKQYFKSNFPARAAYQVAALPKGSRIEIEAVAIQGPLTTASL,soluble
10,MTQDTQLTFEARDEFNRKSIAEKVITLLRSDITVSPLVIDGSWGLGKTEFCQKLLSLMSTEETHHLIYIDAFKADHADEPLLTVLAKVLEVLPSQEEQQGLIQKAIPALRYGLKTGGKALVAHILRQDTDSIINGFDEEVKQVADKAIDASVESLLKDHVEAESSLQALQQALKSIAEQKPIVLFIDELDRCRPNFSVLMLETIKHTFDVEGVQFVLITNTNQLKASINHCYGPTIDAQRYLDKFIRFSFTLPHTTNENRHDVTMASVTHYKNLVAKSERLQGLSLDRDSDFWLVAQVINTNNISLREVETLVRHIEIYQALFDDQPLSNHTQWAYRLMALLGVLLISFKPNLAKSALINNLDAKDLGNFLGVHSLPKLENNQHPTHCDTLVFMLASECKYNSDFYVPDNPQDKERWEGEANEYFRGRYNLTRNGRMSLVTGAIKGLGLSVNLEHHHHHH,not soluble
11,SLSSLEGQENSFTINSVDMKSLPDWTVQNGKNLTLQCFADVSTTSHVKPQHQMLFYKDDVLFYNISSMKSTESYFIPEVRIYDSGTYKCTVIVNNKEKTTAEYQLLVEGVPSPRVTLDKKEAIQGGIVRVNCSVPEEKAPIHFTIEKLELNEKMVKLKREKNSRDQNFVILEFPVEEQDRVLSFRCQARIISGIHMQTSESTKSELVTVTESFSTPKFHISPTGMIMEGAQLHIKCTIQVTHLAQEFPEIIIQKDKAIVAHNRHGNKAVYSVMAMVEHSGNYTCKVESSRISKVSSIVVNITELFSKPELESSFTHLDQGERLNLSCSIPGAPPANFTIQKEDTIVSQTQDFTKIASKSDSGTYICTAGIDKVVKKSNTVQIVVCEMLS,soluble
12,AAQEKVVKLKIVQTSDVHGNYYPYNFITRKDWQGSLARIYAFVEKEREQYKENLILLDNGDILQGQPTAYYYNYIDTVSPHLCAEMMNYMKYDAGNMGNHDVETGRAVFDRWINTCDFPVLGANIIDISTGEPHLPPYKVMERDGVKIVILGMITPAIPAWLSENLWKGLRFDDMEETARKWMKIIREKENPDLMIGLFHAGQEAFKMSGKYNENASLSVAKNVPGFDIVLMGHDHARECKKVMNVAGDSVLVIDPASNGIVLSNIDVTLKLKDGKVRSKDIKGVLTETKDYGISEDFMKNFAPQYDTVRNFVSK,not soluble
13,MSLTIMPDIARMKRELAEIIAIRSENPPGGEADVAVYVERLLKDEGFSVSLTEYKPGRFNVEARIENGPGPVFAFNTHMDTVPAGDGWTTDAFILREDDGKLFGRGACDCKGPLIAMIEAMRMLAADRTAWSGTLLGVFVGDEEIASEGAKYYAAARPKIDFAVVGEPTSNTTYSAHKGSLRPVVRVHGVTAHSGTPHLGDNAIYRAGQLLTLVEAFHNNVVRKRTHPLVGEASLTVTRISGGHADNVLPGSCDLLLDRRMVPGESEDAVKQEFATLLKDAYDRFGVKAEIVDYKATTGSATETAADQSIVAASLEACRASGTSDPGPFGFQGGCDLVHFRSLGAQGTVIGPGSLSVAHKADEFVPLDEFVTCSVIYRDVARKMLRPNEGHHHHHH,soluble
14,MIDPREPIVTPVPVEELRPTQITVGMREVALKRQMIREQDAKKKTGAFLGKHMVPVVLGPKNRNYVTDHHHLARALLEEGVKDVLVTVISDLSALDKDTFLFVLDNRGWMHPFDESGRRRDYSAIPKTIGELIDDPYRSMAGELRRMGGFAKDTTPFSEFIWADFLRRRIDRNAVAKNFDKAMKEALSLAKGKDADYLPGWCGPTSDAAALEHHHHHH,soluble
15,PSVQVPQSTILYASDGSKLGETNYGEKRYWVPLKDMNPTIVKATVAIEDQNFYDHHGFDYKRMAGAALADLKAFAKVQGASTITQQYARNLYLEHDKTWKRKWNEAFYTIRLEQNYSKDEILEGYLNTIYYGHGAYGIEAASRLYFGKHAKNLTDAEAALLAGIPKGPSGY,not soluble
16,MRCPWRKTRRHSDNGWYGPRNQIRPDDHRLHRKVRKSRGDSRRAGNGSPRARCFEGAQRRGKSDGLSECGRMKNLLEMVELVRGKRMKIAVGAAEDEEVLKAVARAKEEEIVDPVLFGKRKDIETLVERMNLELEAEIVHVEDPFEAVRKAVESVSRNETQILMKGKIKTSDLFSVFLKKEYGLRTGRTLSAVSVHEVPGYHKILIISDGGLVISPNLQQRMDIVENSILVARALGIEKPKIALLGTGDLKSPLTLEIAALSKIFQQRNDCIVDGPLTLDLAISEELASKAGNSPVAGDADILIVPSIETGNILSKSLVYMARGRAAIVVVGGRVPVVLTSRADDEETRFLSIALSVLVAQKKG,soluble
17,MRVEPLPGVPAATVDTDGERLLAVADYHAGIEAGLRYEGVELQSAAEARRERLLTCLRRARADRLVVIGDLGHAIGDPFADERAELETLFDALDVPVTLVKGNHD,not soluble
18,MADRDATLWASHEKMLSQPLKDSDAEVYSIIKKESNRQRVGLELIASENFASRAVLEALGSSLNNKYSEGYPGQRYYGGTEFIDELEMLCQKRALQAYHLDPQCWGVNVQPYSGSPANFAVYTALVEPHGRIMGLDLPDGGHLTHGFMTDKKKISATSIFFESMPYKVYPETGYINYDQLEENASLFHPKLIIAGTSCYSRNLDYARLRKIADDNGAYLMADMAHISGLVAAGVVPSPFEHCHVVTTTTHKTLRGCRAGMIFYRKGVRSVDPKTGKETYYELESLINSAVFPGLQGGPHNHAIAGVAVALKQAMTTEFKIYQLQVLANCRALSDALTELGYKIVTGGSDNHLILMDLRSKGTDGGRAEKVLEACSIACNKNTCPGDKSALRPSGLRLGTPALTSRGLLEEDFQKVAHFIHRGIELTLQIQSHMATKATLKEFKEKLAGDEKIQSAVATLREEVENFASNFSLPGLPDF,soluble
19,MHPRKIEIVTAAVTCFLERGYHQTGIRDIARQAGVSLGNLYNHFAGKEAVLAFIAELEGRELAAFVDMLSDPEEPYAALERFIWAYAAYAARPENALLGLELMAEALRNPTISQVFDGNRHQLVAALMGCLERGVSTGRFRHLDDTRALALMILDTLEGQGLRQLDRKTPDPDAVRTLCAVLTTGLLARDQSPPPVPCNTPCSSA,not soluble
20,DQNAYHSIRTLLKSPTTLGEVKEHITHALTITPTKGSVINAFEHMWGYFKKQCTQYEKQHSRELKALYIENQIDYFELLSFLKNLADKYAVEYLQQSTILNITK,not soluble
